In the RNAGym collection of RNA variant scans (doi:10.7554/elife.80360) one finds self-cleavage data, which are given here for 167 variants.

B1: CPEB3 Ribozyme (parent)
chain: GGGGGCCACAGCAGAAGCGUUCACGUCGCGGCCCCUGUCAGAUUCUGGUGAAUCUGCGAAUUCUGCUGU

Variants of B1 are the subject of the data set. In words: self-cleavage, relative activity (ratio to wild type); higher = more cleavage; co-transcriptional.
As for G19C G58C, the self-cleavage turned out to be 0.12. As for G19C G58U, the self-cleavage was determined as 0.19. For C18U U67A, the self-cleavage was found to be 0.862. Consider C18U U67C, for which the self-cleavage stood at 0.802.

In the case of G19C U44G, the self-cleavage was determined as 0.164. For G19C U44A, the self-cleavage came out at 0.185. For G19C C45G, the self-cleavage turned out to be 0.119. In the case of G19C C45A, the self-cleavage came to 0.178.

For G19C C45U, the self-cleavage worked out at 0.154. In the case of G19C C29A, the self-cleavage came to 0.164. On to G19C C29G, for which the self-cleavage amounted to 0.1. Regarding G19C C33U, the self-cleavage worked out at 0.181. As to G19C C33G, the self-cleavage worked out at 0.142. For the variant G19U C54U, the self-cleavage worked out at 0.625. Take G19U C54G: the self-cleavage was found to be 0.317. For the variant G19U C54A, the self-cleavage is 0.182.

Consider C18U U49G, for which the self-cleavage turned out to be 0.894. Consider C18U U21C, for which the self-cleavage was found to be 0.389. Consider C18U U21A, for which the self-cleavage was 0.807. In the case of C18U U21G, the self-cleavage was found to be 0.276. With G19A G65C, the self-cleavage is 0.127.

With G19A G65U, the self-cleavage was 0.159. As to G19A G65A, the self-cleavage worked out at 0.0987. G19A G25A: the self-cleavage is 0.0763.

On to G19A G25C, for which the self-cleavage was 0.151. G19A G25U: the self-cleavage came out at 0.164. In the case of C18U C45A, the self-cleavage is 0.792. Regarding G19C C32U, the self-cleavage was determined as 0.198.

Regarding G19C C32A, the self-cleavage is 0.146. C18U U62C: the self-cleavage was determined as 0.572. For C18U U62A the value was 0.402; for G19A C45G, 0.194. On to C18U G48U, for which the self-cleavage came out at 0.934. As to C18U G48C, the self-cleavage turned out to be 0.903. Take C18U G58A: the self-cleavage is 0.801. For C18U G58U, the self-cleavage is 0.942. Consider G19C C66G, for which the self-cleavage was 0.172. As to G19C C66A, the self-cleavage came out at 0.114. As for G19C C66U, the self-cleavage turned out to be 0.105. Regarding G19C U49C, the self-cleavage is 0.104. For the variant G19C U49G, the self-cleavage amounted to 0.182. Take G19U A40G: the self-cleavage is 0.332. G19U A40U: the self-cleavage is 0.237.

With G19U A40C, the self-cleavage was found to be 0.189. For the variant G19C U69C, the self-cleavage was 0.357.

With G19C U69G, the self-cleavage was 0.231. For G19U C32A, the self-cleavage turned out to be 0.281. On to G19U C32G, for which the self-cleavage is 0.157.

With G19U G25C, the self-cleavage was determined as 0.122. The value for G19U G25A was 0.177; that for G19U G25U was 0.14; that for G19U C24G was 0.121. As to G19U G48U, the self-cleavage turned out to be 0.681. C18U G65C: the self-cleavage turned out to be 0.363. In the case of C18U G65A, the self-cleavage came to 0.332. Take G19C U38G: the self-cleavage amounted to 0.185. As to C18U G56A, the self-cleavage amounted to 0.706. In the case of G19C A60C, the self-cleavage is 0.15. Regarding G19C U61G, the self-cleavage was 0.116. In the case of G19C U61C, the self-cleavage was 0.161.

For the variant G19U A52U, the self-cleavage stood at 0.474.

As for G19U A52G, the self-cleavage is 0.589.

Turning to G19U A52C, the self-cleavage was 0.432. The value for G19A U43G was 0.245. As for G19U C29G, the self-cleavage was 0.175. The value for G19U C29A was 0.161; that for C18U U36A was 0.109; that for C18U U36C was 0.562. As for G19C G50U, the self-cleavage is 0.186.

Take G19C G50A: the self-cleavage was 0.147.

On to G19A A23C, for which the self-cleavage is 0.25. Turning to G19A A23U, the self-cleavage was found to be 0.154. With G19A A23G, the self-cleavage is 0.131.

In the case of G19C G31C, the self-cleavage was determined as 0.153.

Regarding G19C G31U, the self-cleavage is 0.217. With G19C G31A, the self-cleavage came out at 0.132. The value for C18U U38C was 0.694; that for C18U U38A was 0.671. In the case of C18U U38G, the self-cleavage was found to be 0.116. The value for G19A C27U was 0.768. On to G19A C27A, for which the self-cleavage is 0.143.

As for G19A C27G, the self-cleavage came to 0.656. For C18U U55A the value was 0.447; for C18U U55C, 0.446. For the variant G19A U53A, the self-cleavage worked out at 0.174. For G19C A52C the value was 0.195. Consider G19C A52U, for which the self-cleavage is 0.189. Regarding G19C A52G, the self-cleavage stood at 0.134. For C18U U44C the value was 0.617; for C18U U44A, 0.727.

For the variant C18U U44G, the self-cleavage was 0.726. For the variant C18U G28A, the self-cleavage was found to be 0.909. As to G19A U55G, the self-cleavage came out at 0.099. As for G19A U55A, the self-cleavage came to 0.185. Consider G19A U55C, for which the self-cleavage is 0.218. For G19A C29G, the self-cleavage amounted to 0.153. As for G19A C29U, the self-cleavage was 0.0995. For G19C G68C the value was 0.187; for G19C G68A, 0.201; for G19C G68U, 0.13. G19A C22U: the self-cleavage came out at 0.196. On to G19A C22G, for which the self-cleavage was found to be 0.148. Turning to G19A C54U, the self-cleavage worked out at 0.134. The value for G19A C54A was 0.163; that for C18U G19C was 0.168.

On to C18U G19U, for which the self-cleavage is 0.142. G19C C27U: the self-cleavage came to 0.116. As for G19C C27G, the self-cleavage amounted to 0.961.

In the case of G19U A42C, the self-cleavage was determined as 0.269.

For G19U A42U, the self-cleavage worked out at 0.327.

Turning to G19U A42G, the self-cleavage was 0.326. For G19A G56A the value was 0.104. The value for G19A G56C was 0.0715; that for G19C U36A was 0.188; that for G19C U36C was 0.0775.

Turning to G19C U36G, the self-cleavage was determined as 0.141.

For the variant G19C U26C, the self-cleavage worked out at 0.153. As to G19C U26G, the self-cleavage turned out to be 0.109. For G19C U26A the value was 0.13; for C18U U53C, 0.47.

On to G19A G50C, for which the self-cleavage is 0.204. For G19A G50A, the self-cleavage is 0.197.

For the variant G19A U44A, the self-cleavage was found to be 0.172. Take G19A U44G: the self-cleavage stood at 0.158. The value for G19C C35A was 0.154. G19C C35G: the self-cleavage was 0.149.

Turning to G19C C54A, the self-cleavage worked out at 0.158. G19C C54G: the self-cleavage is 0.163. The value for G19C C54U was 0.113; that for G19U A59G was 0.66.

For G19U A59U, the self-cleavage is 0.158. For G19U A60G the value was 0.289. For the variant G19U A60U, the self-cleavage is 0.168.

In the case of G19A U46C, the self-cleavage worked out at 0.103. Consider G19A U46G, for which the self-cleavage was 0.151. On to G19A A51U, for which the self-cleavage was 0.245. As to G19A C33U, the self-cleavage is 0.13. For G19A C33A the value was 0.126; for G19A G68U, 0.232. For the variant G19A G28A, the self-cleavage amounted to 0.152. G19A G28C: the self-cleavage came out at 0.216. For the variant G19A G28U, the self-cleavage is 0.132. As to G19C C57A, the self-cleavage is 0.158. For G19C C57G the value was 0.132; for G19C U62G, 0.162. For the variant G19A A40C, the self-cleavage amounted to 0.123. With G19A A40U, the self-cleavage was 0.147. As to G19C G47C, the self-cleavage is 0.147.

Regarding G19C G47U, the self-cleavage was determined as 0.152. Turning to G19C A51C, the self-cleavage turned out to be 0.122. Take G19C C39A: the self-cleavage stood at 0.155. Take G19C U21A: the self-cleavage worked out at 0.109. For G19C U21C the value was 0.142; for G19C G37U, 0.143. For G19C G37C, the self-cleavage worked out at 0.183. Take G19C G37A: the self-cleavage is 0.225. Consider G19A U61C, for which the self-cleavage amounted to 0.164. For G19A U61A, the self-cleavage was 0.16.

Regarding G19A U49A, the self-cleavage came out at 0.2. As to G19A U49C, the self-cleavage stood at 0.163.

G19A U49G: the self-cleavage worked out at 0.181. Consider G19C G56C, for which the self-cleavage turned out to be 0.169.

For G19C G56A, the self-cleavage was determined as 0.16.

Turning to C18U G37A, the self-cleavage was 0.193.

In the case of C18U G37C, the self-cleavage was 0.13. Consider G19U G28A, for which the self-cleavage came out at 0.122. Turning to G19U G28U, the self-cleavage came out at 0.116.
